Here are results for two molecules from patent US20230265217A1 (published 2023).

In this experiment the target is SARS-CoV-2 S protein trimer (Delta B.1.617.2 India variant) [SPN-C52He] (SARS-CoV-2, UniProt P0DTC2 16-1213). Briefly: SPR. In general terms: Surface plasmon resonance follows binding to a sensor surface in real time, without labels.

For orientation: Kd means the constant that tells how readily two partners part at equilibrium. Higher therefore signals a looser complex.

B1: 3-31 (VHH)
VHH: EVQLVESGGGLVQPGGSLRLSCAASGSTFSINAMGWFRQAPGKEREFVAGITSSGGYTNYADSVKGRFTISADNSKNTAYLQMNSLKPEDTAVYYCAADGVPEYSDYASGPVWGQGTLVTVSS
B1 gave a Kd below 16 pM.

B2: 6A-3 (VHH)
VHH: EVQLVESGGGLVQPGGSLRLSCAASGFTFSPSWMGWFRQAPGKEREFVATINEYGGRNYADSVKGRFTISADNSKNTAYLQMNSLKPEDTAVYYCARVDRDFDYWGQGTLVTVSS
Take B2: binding was characterised by a dissociation constant (Kd) of 449 pM.
